# Laboratory results taken from US20260070974A1 (NONA BIOSCIENCES SUZHOU, published 2026).
# Where “and” joins values, the source holds several entries; their conditions need not be identical. Equal entries are not always repeated.
# T1: human Siglec-15 ECD-his protein (Acrobiosystems, Cat #: SG5-H52H3) (human, UniProt Q6ZMC9 20-263)
# T1 construct: Bought protein; only its extracellular domain stood in the assay; also called human Siglec-15 protein; recombinant human Siglec-15 protein; not shown: his tag
# T1 sequence: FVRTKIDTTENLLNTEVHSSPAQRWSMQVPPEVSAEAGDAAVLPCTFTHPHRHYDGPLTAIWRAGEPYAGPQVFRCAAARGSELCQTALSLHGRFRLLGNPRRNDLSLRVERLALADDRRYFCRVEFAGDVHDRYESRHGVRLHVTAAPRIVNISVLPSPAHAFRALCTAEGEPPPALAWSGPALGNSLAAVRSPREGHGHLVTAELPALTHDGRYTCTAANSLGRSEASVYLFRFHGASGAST
# T2: cynomolgus monkey Siglec-15-his protein (Acrobiosystems, Cat #: SG5-C52H6) (cynomolgus monkey, UniProt Q6ZMC9 20-263 (human entry))
# T2 construct: Bought protein; also called cynomolgus monkey Siglec-15 protein; not shown: his tag
# T2 chain: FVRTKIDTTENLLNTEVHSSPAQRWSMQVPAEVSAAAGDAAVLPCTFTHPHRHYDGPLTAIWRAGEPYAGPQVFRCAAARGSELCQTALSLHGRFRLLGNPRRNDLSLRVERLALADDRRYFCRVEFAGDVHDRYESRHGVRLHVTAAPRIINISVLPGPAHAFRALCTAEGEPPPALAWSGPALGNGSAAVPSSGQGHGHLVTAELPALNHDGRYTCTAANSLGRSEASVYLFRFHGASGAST
# B1: PR300066 (Tab) (antibody, human IgG1, kappa, V domains shown)
# VH: QVQLQQPGAELVKPGASVKMSCKASGYTFTSYWITWVIQRPGQGLEWIGDIYCGSDTMHYNEKFKNKATLTVDTSSSTAYMQLSSLTSEDSAVYYCARWWDYGSSYDYFDYWGQGTTLTVSS
# VL: DIKMTQSPSSMYASLGERVTITCKASQDINSYLSWFQQKPGKSPKTLIYRANRLVDGVPSRFSGSGSGQDYSLTISSLEYEDMGIYYCLQYDEFPYTFGGGTKLEIKR
# notes: variable region from clone 5G12 of WO 2018/057735A1, on human IgG1/kappa constant regions; also called 5G12
# B2: PR301289 (antibody, human IgG1, kappa, V domains shown)
# VH: QVQLVQSGAEVKKPGASVKVSCRASGYTFTSYDINWVRQATGQGLEWMGWMNPHSGDTGYAQNFQGRVTMTWNTSISTAYMELSSLRSEDTAVYYCARRRVGVYYYGMDVWGQGTTVTVSS
# VL: ENVLTQSPGTLSLSPGERATLSCRASQSVSSSYFGWYQQKPGQAPRLLIYGASSRATGIPDRFSGSGSGTDFTLTISRLEPEDFAVYYCQQYGSSPITFGQGTRLEIKR
# notes: Parent of the PTM variants PR301289-1 and -2
# B3: PR301286 (antibody, human IgG1, kappa, V domains shown)
# VH: QVQLVESGGGVVQPGKSLRLSCAASGFTFSSYGMHWVRQAPGKGLEWVAVIWIDGSNRYYAASVKGRFTISRDNSKNTLYLQMNSLRAEDTAVYYCTRGYGDYAYVMDVWGQGASVTVSS
# VL: DIVMTQSPLSLPVTPGEPASISCRSSQSLLPGNGYNYLDWYLQKPGQSPQLLIYLGSNRASGVPDRFSGSGSGTDFTLKISRVEAEDVGIYYCMQALQSPLTFGGGTKVEIKR
# notes: Parent of the PTM variants PR301286-1, -3, -5, -6, -7
# B4: PR301285 (antibody, human IgG1, kappa, V domains shown)
# VH: QVQLQESGPGLVKPSETLSLTCTVSGGSMISYYWSWLRQPPGKGLEWIGYIYYSGNTNYNPSLKSRITIAVDTSKNQFSLKLNSVTAADTAVYYCARERELHPYYFDYWGQGTLVTVSS
# VL: DIQLTQSPSFLSASVGDRVTITCRASQGIDNYLAWYQQKPGKAPKVLIYAASTLQSGVPSRFSGSGSGTEFTLTISSLQPEDFATYYCQQLNSYPLTFGGGTKVEIKR
# Target: T1, human Siglec-15 ECD-his protein …
# Assay: BLI (Octet RED96), antibody on AHC sensor, Siglec-15 ECD-his as analyte
# Protocol: Recombinant Human Siglec-15 Protein Affinity was determined using an Octet RED96 instrument (ForteBio) and an anti-human IgG Fc capture sensor (AHC biosensor, ForteBio, Cat #: 18-5060) according to the detailed procedures and methods provided by the manufacturer. Specifically, candidate antibodies were each diluted to a final concentration of 6 µg/mL and directly immobilized on AHC biosensors for kinetic measurements. The antigenic protein Siglec-15 ECD-his protein (Acrobiosystems, Cat #: SG5-H52H3) was diluted with 10× Kinetics buffer to 3 concentrations of 60 nM, 30 nM, and 15 nM separately and injected as the analyte for 120 s with a dissociation time of 400 s and then subjected to regeneration with 10 mM glycine HCl (pH 1.5) for 15 s. The association rate (kon) and dissociation rate (kdis) were calculated using a simple one-to-one Languir binding model (Octet Red96 data analysis software). The equilibrium dissociation constant (kD) was calculated as the ratio of kdis/kon.
Kd,koff,kon,Binder
130 pM and 293 pM,9.5e-05 s⁻¹ and 0.000182 s⁻¹,730000 M⁻¹ s⁻¹ and 621000 M⁻¹ s⁻¹,B1
173 pM,6.47e-05 s⁻¹,373000 M⁻¹ s⁻¹,B2
< 1 pM,< 1e-07 s⁻¹,368000 M⁻¹ s⁻¹ and 292000 M⁻¹ s⁻¹,B3
< 1 pM,< 1e-07 s⁻¹,529000 M⁻¹ s⁻¹,B4

# Target: T2, cynomolgus monkey Siglec-15-his protein …
# Assay: ELISA, coated cynomolgus monkey Siglec-15-his
# Protocol: […] cynomolgus monkey Siglec-15-his protein (Acrobiosystems, Cat #: SG5-C52H6) dissolved in PBS was added to an ELISA plate at 100 μL/well for coating and the plate was incubated overnight at 4° C. The ELISA plate was then blocked with PBST (PBS+0.05% Tween 20) containing 2% BSA at 200 μL/well and incubated at 37° C. for 1 h. The ELISA plate was washed 4 times with PBST. The anti-Siglec-15 antibody diluted in a gradient (5-fold dilution, starting concentration: 6.67 nM) was added to the ELISA plate at 100 µL/well and the plate was incubated at 37° C. for 1 h. The ELISA plate was washed 4 times with PBST. The goat anti-human IgG (H+L)-HRP (1:5000, Jackson, Cat #: 109-035-088) was added at 100 μL/well and the plate was incubated at 37° C. for 1 h. The ELISA plate was washed 4 times with PBST. The TMB substrate (Biopanda, Cat #: TMB-S-003) was added at 100 μL/well, and the plate was incubated at room temperature for 5 min, and then the stop buffer (Solarbio, Cat #: C1058) was added at 100 μL/well to stop the reaction.
row,EC50,Binder
1,25 pM and 12 pM,B1
2,104 pM,B2
3,90 pM,B3
4,38 pM,B4

# Target: T3, human Siglec-3-his protein (Acrobiosystems, Cat CD3-H5226) (human, UniProt P20138 18-259)
# T3 construct: Bought protein; not shown: his tag
# T3 sequence (P20138 18-259 limits assumed): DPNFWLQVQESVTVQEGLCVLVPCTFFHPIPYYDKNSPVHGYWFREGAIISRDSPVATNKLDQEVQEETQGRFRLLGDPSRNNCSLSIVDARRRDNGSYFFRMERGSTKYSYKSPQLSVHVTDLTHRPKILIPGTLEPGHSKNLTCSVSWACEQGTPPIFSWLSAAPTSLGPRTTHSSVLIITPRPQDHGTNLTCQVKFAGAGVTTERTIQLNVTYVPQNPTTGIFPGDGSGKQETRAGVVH
# Assay: ELISA on coated human Siglec-3-his, antibody at 100 nM and 10 nM, goat anti-human IgG-HRP, OD450
# Protocol: (§1) Human Siglec-15 ECD-his protein (Acrobiosystems, Cat SG5-H52H3), human Siglec-2-his protein (Acrobiosystems, Cat CD2-H52H8), human Siglec-4a-his protein (Acrobiosystems, Cat MAG-H52H8), human Siglec-3-his protein (Acrobiosystems, Cat CD3-H5226), human Siglec-10-his protein (Acrobiosystems, Cat SIO-H52H9), and human PD-L1/B7-H1-his protein (Acrobiosystems, Cat PD1-H5229), each at 1 μg/mL and dissolved in PBS, were each added to an ELISA plate at 100 μL/well for coating and the plate was incubated overnight at 4° C. The ELISA plate was then blocked with PBST (PBS+0.05% Tween 20) containing 2% BSA at 200 μL/well and incubated at 37° C. for 1 h. The ELISA plate was washed 4 times with PBST. The anti-Siglec-15 antibody diluted in a gradient (concentrations: 100 nM and 10 nM) was added to the ELISA plate at 100 μL/well and the plate was incubated at 37° C. for 1 h. The ELISA plate was washed 4 times with PBST. The goat anti-human IgG (H+L)-HRP (1:5000, Jackson, Cat 109-035-088) was added at 100 μL/well and the plate was incubated at 37° C. for 1 h. The ELISA plate was washed 4 times with PBST. The TMB substrate (Biopanda, Cat TMB-S-003) was added at 100 μL/well, and the plate was incubated at room temperature for 5 min, and then the stop buffer (Solarbio, Cat #: C1058) was added at 100 μL/well to stop the reaction.
row,binding result,Binder
1,no binding (tested: 100 nM),B1
2,no binding (tested: 100 nM),B2
3,no binding (tested: 100 nM),B3
4,no binding (tested: 100 nM),B4

# Target: T4, human PD-L1/B7-H1-his protein (Acrobiosystems, Cat PD1-H5229) (human, UniProt Q9NZQ7 19-238)
# T4 construct: Bought protein; not shown: his tag
# T4 sequence (Q9NZQ7 19-238 limits assumed): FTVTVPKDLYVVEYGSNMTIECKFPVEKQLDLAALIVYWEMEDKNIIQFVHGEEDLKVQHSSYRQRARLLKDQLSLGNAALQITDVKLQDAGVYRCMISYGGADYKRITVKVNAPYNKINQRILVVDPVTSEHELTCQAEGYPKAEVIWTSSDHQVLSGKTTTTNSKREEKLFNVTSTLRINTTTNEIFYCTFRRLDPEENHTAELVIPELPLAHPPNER
# Assay: ELISA on coated human PD-L1/B7-H1-his, antibody at 100 nM and 10 nM, goat anti-human IgG-HRP, OD450
# Protocol: as §1
row,binding result,Binder
1,no binding (tested: 100 nM),B1
2,no binding (tested: 100 nM),B2
3,no binding (tested: 100 nM),B3
4,no binding (tested: 100 nM),B4
